{"source": "paper PMC3319151", "about": "(Journal of Molecular Biology, 2009)", "key": {"[1]": {"molecular_target": "WFHVEED peptide (synthetic construct)", "assay": "fluorescence polarization", "settings": "cited from earlier work"}, "[2]": {"molecular_target": "(FAM)-AWFHVEED peptide", "assay": "fluorescence polarisation"}, "[3]": {"molecular_target": "T1, CA150 FF1-3 (human CA150 residues 661-845), GST cleaved off (human, UniProt O14776 661-845)", "T1 sequence": "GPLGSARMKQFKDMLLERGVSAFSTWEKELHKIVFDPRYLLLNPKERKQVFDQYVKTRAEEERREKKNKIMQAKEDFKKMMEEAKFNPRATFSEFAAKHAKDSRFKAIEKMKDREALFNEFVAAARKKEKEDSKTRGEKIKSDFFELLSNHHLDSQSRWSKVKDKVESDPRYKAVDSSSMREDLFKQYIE", "assay": "fluorescence polarisation"}, "[4]": {"molecular_target": "T2, GST-CA150 FF1-3 (human, UniProt O14776 661-845)", "T2 sequence": "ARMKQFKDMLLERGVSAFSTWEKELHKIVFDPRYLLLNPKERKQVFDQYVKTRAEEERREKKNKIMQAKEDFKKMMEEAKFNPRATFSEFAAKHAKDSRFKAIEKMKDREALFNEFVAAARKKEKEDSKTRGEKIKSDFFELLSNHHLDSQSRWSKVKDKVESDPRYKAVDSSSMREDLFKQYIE", "assay": "fluorescence polarization"}, "[5]": {"molecular_target": "T3, CA150 FF1-3 wild-type (human, UniProt O14776 661-845)", "T3 sequence": "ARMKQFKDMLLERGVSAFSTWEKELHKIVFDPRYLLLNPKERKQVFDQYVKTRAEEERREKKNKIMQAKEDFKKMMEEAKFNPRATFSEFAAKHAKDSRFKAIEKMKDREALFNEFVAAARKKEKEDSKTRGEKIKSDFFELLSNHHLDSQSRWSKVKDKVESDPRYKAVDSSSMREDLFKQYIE", "assay": "fluorescence polarization"}}, "note": "Where no end group is shown, it is not given here. The star is where a group is joined. 5FAM = O=C1OC2(c3ccc(O)cc3Oc3cc(O)ccc32)c2ccc(C(=O)*)cc21", "data": [{"molecule": "CA150 (GST-FF1-3) FF1-3 (from UniProt O14776)", "values": [{"measurement": "Kd", "setting": "[1]", "result": 48, "unit": "µM"}]}, {"molecule": "GST alone", "values": [{"measurement": "Kd", "setting": "[2]", "result": "> 740", "unit": "µM"}]}, {"molecule": "5FAM-AWFHVEED", "note": "[(FAM)-AWFHVEED peptide]", "values": [{"measurement": "Kd", "setting": "[3]", "result": "> 400", "unit": "µM"}]}, {"molecule": "MATa1/MATalpha2 duplex of Ke et al. (dsDNA) DNA 1: ACATGTAAAAATTTACATCA DNA 2: TTGATGTAAATTTTTACATG", "values": [{"measurement": "Kd", "setting": "[4]", "result": "520 ± 60", "unit": "nM"}, {"measurement": "Kd", "setting": "[5]", "result": "3.87 ± 0.31", "unit": "µM"}]}]}
